According to US9701748B2, “Humanized anti-CD22 antibody” (IMMUNOMEDICS, INC., priority 2014, dated 2017):

Columns and labels:
[1] = system: B cells gated from PBMCs of healthy donors; test: Trogocytosis: surface antigen levels on B cells after overnight treatment of PBMCs, flow cytometry; assay type: cell-based, human
Description: (§1) Peripheral blood mononuclear cells (PBMCs) obtained from healthy donors were incubated overnight (16-24 h) with 10 μg/mL of either epratuzumab or an isotype control mAb (hMN-14) and the relative levels of various antigens on the surface of the B cells were analyzed by flow cytometry. PBMCs from heparinized whole blood of normal donors were isolated by density gradient centrifugation on UNI-SEP tubes (Novamed Ltd, Israel). PBMCs were reconstituted in RPMI media supplemented with 10% heat inactivated fetal bovine serum and plated at a cell density of 1.5×10^6/mL in non-tissue culture treated 48-well plates. […] Stained cells were analyzed by flow cytometry on a FACSCALIBUR® (BD Biosciences) using Flowjo (V7.6.5) software. Initially, the lymphocyte population was gated by side vs. forward scattering, and B cells were further gated from this population with the CD19 signal. The mean fluorescence intensity (MFI), obtained with fluorochrome-conjugated antibodies to various cell surface antigens, on the gated B cells was calculated following treatment with epratuzumab, hMN-14 or without antibody. PBMCs from 16 healthy donors were assessed in various experiments.

[2] = system: B cells in PBMCs; test: Relative B cell count after overnight treatment of PBMCs; assay type: cell-based, human
Description: as §1

[3] = system: NHL patients; conditions: cited from earlier work
[4] = system: subjects; conditions: reported, Morchhauser et al., 2009, Goldenberg et al., Robak & Robak, 2011; cited from earlier work
[5] = molecular target: T1, CD22 (Homo sapiens, UniProt P20273); test: Binding affinity for CD22+ Daudi cells determined by ELISA (FIG. 2); conditions: CD22+ Daudi cells, FIG. 2
T1 construct: endogenous in cells; host or cells: Daudi (Burkitt lymphoma) cells
Description: FIG. 2. Comparative binding affinity for CD22+ Daudi cells of hLL2 IgG, hRFB4 IgG, chimeric RFB4 conjugated to AD2 peptide, and hMN-14 IgG, as determined by ELISA. The binding affinity of hRFB4 as determined for Daudi cells is about 10-fold higher than that of hLL2 and about 30% higher than the chimeric RFB4.
The hRFB4 antibody was prepared as described above, resulting in a humanized anti-CD22 antibody with variable region sequences as shown in FIG. 1A and FIG. 1B (SEQ ID NO:7 and SEQ ID NO:8). After expression, the binding affinity or CD22+ Daudi cells was compared to that of the hLL2 antibody, comprising the same FR and constant region sequences but different CDR sequences, and to the chimeric RFB4 antibody, comprising the same CDR sequences but different FR and constant region sequences.

[6] = system: Daudi cells; test: Dose-response of trogocytosis of CD22 and CD19 from Daudi cells (FIG. 6A, 6B); assay type: cell-based, human
[7] = system: NHL Burkitt cell lines (Daudi, Raji, and Ramos); test: Surface markers on NHL Burkitt cell lines, isolated or spiked into normal PBMCs; assay type: cell-based, human
Excerpt: This mechanism of action may explain the limited effectiveness of high doses of epratuzumab compared to lower doses in patients with SLE.

[8] = system: patients with SLE who have failed at least one previous therapy; test: Combination therapy of SLE with hRFB4 and hLL2; assay type: in vivo, human; conditions: single antibody alone, same dosage and schedule
Description: Patients with SLE who have failed at least one previous therapy receive combination therapy with 160 mg each of hRFB4 and hLL2 (epratuzumab), administered s.c. in 2 injections weekly for four weeks. Control groups receive hRFB4 alone, hLL2 alone or irrelevant antibody (hMN-14) at the same dosage and schedule. […] All serum samples evaluated for anti-human antibodies (HAHA) are negative.

[9] = Antibody-dependent cell-mediated cytotoxicity in vitro; assay type: cell-based
[10] = Complement-dependent cytotoxicity in vitro; assay type: cell-based
[11] = system: circulating B cells; conditions: may be overestimated due to use of CD19+ cells to measure B cells; cited from earlier work
[12] = 4 doses of 80, 160 or 320 mg s.c. every two weeks
[13] = 10 μg/mL, overnight, PBMCs of healthy donors

veltuzumab: humanized IgG1 antibody against CD20
reduction of CD19, CD21 and CD79b compared with epratuzumab ([1]; PBMCs of healthy donors, overnight, FIG. 9): greater extent than epratuzumab
reduction of the B cell count ([2]; 10 μg/mL, overnight, PBMCs of healthy donors, FIG. 9): 40%
objective response in the 80 mg dosage group ([3]; 80 mg): 67%
patients showing a complete response in the 80 mg dosage group ([3]; 80 mg): one of three
CR/CRu (complete response) rate [3, 12]: 24%
objective response rate (CR+CRu+PR) [3, 12]: 47%
objective responses continued for 60 weeks ([3]; 60 weeks): Four out of eight
HAHA in serum samples ([3]; all serum samples evaluated): negative
safety ([3]; s.c.): Only occasional, mild to moderate and transient injection reactions
immunogenicity compared with rituximab [4]: less immunogenic in subjects than rituximab

B1: hLL2: humanized anti-CD22 antibody hLL2 (epratuzumab) (antibody, V domains shown)
VH: QVQLQQSGAEVKKPGSSVKVSCKASGYTFTSYWLHWVRQAPGQGLEWIGYIYPRNDYTEYNQNFKDKATITADESTNTAYMELSSLRSEDTAFYFCARRDITTFYWGQGTTVTVSS
VL: DIQLTQSPSSLSASVGDRVTMSCKSSQSVLYSANHKNYLAWYQQKPGKAPKLLIYWASTRESGVPSRFSGSGSGTDFTFTISSLQPEDIATYYCHQYLSSWTFGGGTKVQIKR
Kd [5]: 2 nM
CD19 level on B cells, % of untreated or control mAb [1, 13]: 50%
CD20 level on B cells, % of untreated or control mAb [1, 13]: 82%
CD21 level on B cells, % of untreated or control mAb [1, 13]: 52%
CD22 level on B cells, % of untreated or control mAb [1, 13]: 10%
CD62L level on B cells, % of untreated or control mAb [1, 13]: 73%
CD79b level on B cells, % of untreated or control mAb [1, 13]: 70%
change of CD27 (on CD27+ B cells), CD40, CD44, CD45, β7 integrin and LFA-1 (CD11a and CD18) [1, 13]: < 10 % change
responsiveness of CD27− naive B cells compared to CD27+ memory B cells ([1]; CD19, PBMCs from 3 healthy donors): more responsive
time course of the reduction of surface antigens ([1]; PBMCs of healthy donors): essentially complete within a few hours
B cell depletion ([2]; either at 10 μg/mL or 1 mg/mL, ex vivo): did not cause significant B cell depletion
minimal concentration to induce the maximal level of trogocytosis of CD19 ([6]; CD19 from Daudi cell, FIG. 6B): 10 ng/mL
minimal concentration to induce the maximal level of trogocytosis of CD22 ([6]; CD22 from Daudi cell, FIG. 6A): 10 ng/mL
concentration inducing the maximal level of trogocytosis of CD19 and CD22 ([6]; dose-response curve, FIG. 6A and 6B): 10 ng/mL
reduction of CD22, CD19, CD21, CD20 and CD79b on the surface of B cells ([7]; PBMCs from normal donors or lupus patients, and NHL lines spiked into normal PBMCs): substantial reduction
surface markers decreased in isolated NHL cells ([7]; isolated NHL cells, no effector cells): only CD22, but not other surface markers, was appreciably decreased
objective responses [8]: Objective responses are observed
antibody-dependent cell-mediated cytotoxicity [9]: modest, but significant
complement-dependent cytotoxicity [10]: negligible
depletion of circulating B cells in patients, on average [11]: 35%
